Laboratory results from the supplement of paper PMC10567573.

B1: TRIM63 (parent)
chain: FRCPTCRHEVIMDRHGVYGLQRNL

Variants of: B1
Assay: protein stability index of a GFP-peptide fusion (GPS, HEK-293T) (PSI 1-6); higher = more stable
Conditions: c terminus: a fixed tail appended
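Further: lentivirally expressed fusions sorted by FACS into six bins by GFP to DsRed ratio, PSI derived from sequencing read proportions per bin multiplied by bin number.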

Protein stability index of substitutions, site by site:
R7: Y 1.94; W 2.12; V 2.93
M12: Y 1.73; R 2.11; F 2.18; G 2.8; T 2.59; H 2.06; W 2.17; A 2.35; V 2.98; P 1.62; I 3.22; E 2.19; Q 2.29; C 2.02; S 3.59; L 2.66; D 1.99
H15: G 2.12; A 1.67; Y 2.49; I 2.19; M 2.71; Q 3.54; P 2.66; D 2.08; E 2.43; N 2.13; W 2.11; T 2.46; K 2.16; C 2.32; V 3.01; R 1.48; L 2.17; F 1.67; S 2.44
E9: N 2.69; D 1.79; V 3.23; H 2.63; C 2.56; Y 1.86; A 2.48; P 1.94; W 2.12; L 2.99; F 2.14; T 2.34; I 1.43; K 1.01; R 1.47; Q 2.63; M 2.06
V17: A 2.98
D13: V 1.32; Y 1.69; P 2.15; M 2.79; T 1.9; A 2.42; S 2.13; W 2.09; H 1.83; N 1.04; I 2.07; G 3.87; R 3; K 1.76; E 2.44; F 1.71; Q 3.89; C 2.18
V10: A 2.65; E 1.91; Y 2.05; Q 1.8; S 3.91; H 1.59; L 2.73; D 2.9; K 3.42; I 2.51; W 2.16; C 2.18; F 2.25; N 3.46; M 1.74; P 1.76; T 2.62; G 2.58; R 2.41
R14: G 2.01; S 3.39; C 1.63; K 2.07; E 3.1; W 1.72; P 2.05; N 2.16; L 2.05; Y 1.95; F 1.7; A 1.99; V 1.54; T 2.29; D 2.5; Q 2.52; H 1.71; M 1.91; I 1.96
H8: T 2.31; R 1.89; W 1.72; K 2.02; C 2.52; N 2.24; P 3.14; Q 1.91; I 2.11; S 1.96; D 1.77; M 3.58; E 1.81; L 2.39; Y 2.34; F 2.64; A 2.6
G16: A 2.15; H 2.34; D 2.47; W 2.31; S 1.97; R 1.83; I 2.15; Q 2.33; V 1.69; K 2.39; N 2.2; Y 2.49; P 2.25; M 2.15; E 1.87; C 2.42; T 1.65; F 2.65; L 2.21
I11: R 3.19; F 2.23; L 2.18; T 2.48; W 1.69; Y 1.74; D 1.08; G 3.3; S 2.52; Q 1.61; K 1.77; N 2.82; P 2.05; H 2.54; V 1.88; A 1.69; C 2.02; E 1.85
